Results on 17 substances are retold here after patent US11505576B2, “Polypeptides based on a scaffold” (AFFIBODY AB, priority 2018, dated 2022).

One data set concerns the target T1, IL-6 (Homo sapiens, UniProt P05231).
T1 construct: purchased R&D Systems 206-IL-200/CF
The experiment in a line: Kinetic analysis using surface plasmon resonance (Biacore T200), immobilized IL-6. The format is binding. On the procedure:
(§1) Kinetic constants (ka and kd) and affinities (KD) were determined for His6-tagged Y variants using a Biacore T200 instrument (GE Healthcare). Target proteins C4, IL-6 and insulin, respectively, were immobilized in separate flow cells on the carboxylated dextran layer of different CM5 chip surfaces (GE Healthcare). Immobilization was performed using amine coupling chemistry according to the manufacturer's protocol and PBS pH 7.4 supplemented with 0.1 Tween20 (PBST 0.1%) as running buffer. The ligand immobilization levels on the surfaces were 3280-8830 RU for C4, 495-1184 RU for IL-6, and 270-282 RU for insulin. One flow cell surface on each chip was activated and deactivated for use as blank during analyte injections. In the kinetic experiment, PBST 0.1% was used as running buffer at a flow rate of 30 μl/min. The analytes, i.e. Y variants, were each diluted in PBST 0.1 buffer at concentrations of 1000, 500, 100, 50 and 10 nM and injected for 5 min, followed by dissociation in running buffer for 3 min. After dissociation, the surfaces were regenerated with one injection of 30 μl 10 mM HCl. Kinetic constants were calculated from the sensorgrams using the Langmuir 1:1 model of Biacore T200 Evaluation software 2.0 (GE Healthcare).
(§2) Produced Y variants were subjected to CD and SPR analyses according to the methods described in Example 1.
(§3) Produced Y variants were subjected to CD and SPR analyses according to the methods described in Example 1. In addition, CD spectra of selected IL-6 binding variants were also recorded at 60, 70, 80 and 90° C.
The Y variants were cloned, produced and characterized according to the general methods described in Example 1. Produced Y variants with point mutations were subjected to CD and SPR analyses as described in Example 1. In addition, CD spectra of the IL-6 binding variants were also recorded at 60, 70, 80 and 90° C.
(In SPR one partner is held on a chip, and binding of the other changes the refractive index at the surface.)

Data set [1] is described as follows: Circular dichroism spectroscopy analysis (CD spectra, variable temperature measurement, refolding). To be noted: for α-helical content / ability to fold into an α-helical structure: CD spectrum at 20° C. The format is physicochemical. In short, it runs like this: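 Y variants at 0.5 mg/ml in PBS were scanned from 250 to 195 nm at 20° C. in a 1 mm cell. Tm came from the 221 nm signal during heating from 20 to 90° C. at 5° C./min, and a second 20° C. spectrum after heating assessed refolding. Selected IL-6 binders were also recorded at 60, 70, 80 and 90° C.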

Data set [2] in a line: Fraction of soluble product on expression in E. coli, estimated from SDS-PAGE. The data set is classed as physicochemical. To be noted: MGSSHHHHHHGSS-[Y#####]-A; for Estimated soluble fraction: Table 7, Ylib002Naive.I selection; for Est soluble fraction: Table 9, mutation study 5. The protocol: E. coli T7E2 cells were transformed with plasmids containing the gene fragment of each respective Y variant. The resulting recombinant strains were generally cultivated in media supplemented with 50 μg/ml kanamycin at 30-37° C. in 50 ml scale using the EnPresso protocol (Enpresso GmbH). In order to induce protein expression, isopropyl-β-D-1-thiogalactopyranoside (IPTG) was added to a final concentration of 0.5 mM at an optical density at 600 nm (OD600) of approximately 10. After induction, the cultures were incubated for 16 h. The cells were harvested by centrifugation. Alternatively, the culture was performed at 37° C. in 980 ml of TSB-YE medium (tryptic soy broth 30 g/l supplemented with yeast extract 5 g/l) supplemented with 50 μg/ml kanamycin, and protein expression induced with 0.2 mM IPTG at OD600=2, followed by incubation for 5 h before harvesting of the cells by centrifugation. The total yield as well as the fraction of soluble and insoluble product of the respective Y variant was estimated based on SDS-PAGE analysis.

A further data set addresses C4. The experiment in a line: Kinetic analysis using surface plasmon resonance (Biacore T200), immobilized C4. The data set is classed as binding. To be noted: Table 7; MGSSHHHHHHGSS-[Y#####]-A. On the procedure:
as §1, §2
The Y variants were cloned, produced and characterized according to the general methods described in Example 1. Produced Y variants with point mutations and/or N-terminal or C-terminal extensions were subjected to CD and SPR analyses as described in Example 1.
as §3

[3] abbreviates: Table 2, His6-tagged Y variant, MGSSHHHHHHGSS-[Y#####]-ASGSVD.
[4] abbreviates: Table 2, Ylib001Naive.I selection, MGSSHHHHHHGSS-[Y#####]-ASGSVD, 0.5 mg/ml in PBS, 221 nm, 20-90° C.
Where [5] appears, read: Table 7, MGSSHHHHHHGSS-[Y#####]-A.
Setting [6] is: Table 9, mutation study 5, MGSSHHHHHHGSS-[Y#####]-A.

pKd: −log10 of the molar value.

T1 sequence (P05231 30-212): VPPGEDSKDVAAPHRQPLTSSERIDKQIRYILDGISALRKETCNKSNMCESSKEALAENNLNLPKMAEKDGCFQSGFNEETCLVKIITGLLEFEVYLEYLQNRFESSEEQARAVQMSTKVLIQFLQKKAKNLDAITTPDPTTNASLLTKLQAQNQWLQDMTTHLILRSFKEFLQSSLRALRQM

As to “Y00035: IL-6 binding Y variant from Ylib001Naive.I, SEQ ID NO:50 (LAEAKEAANAELDSYGVQANSIEAIEQGLFVEVVELLKELILAALP; Engineered IL-6 binding Y variant)”, the pKd (in general, the negative decadic logarithm of the Kd, by convention in mol/L) with IL-6 (setting [3]) was 6.44. In addition, the “α-helical content / ability to fold into an α-helical structure” value in data set [1] was “limited ability”. The Tm in data set [1] (setting [4]) was 60 °C.
“Y00076: IL-6 binding Y variant from Ylib001Naive.I, SEQ ID NO:61 (LAEAKEAALAELDSKGIEEKSISEIEAGLWVEVVELLKESILAVLP; Engineered IL-6 binding Y variant)”: the pKd in the data set with IL-6 (setting [3]) is 6.37. Besides, the “α-helical content / ability to fold into an α-helical structure” value in data set [1] is “limited ability”. Also, in data set [1] (setting [4]), the Tm was determined as 47 °C.
With “Y00792: C4 binding Y variant from Ylib002Naive.I, SEQ ID NO:32 (LAEAKEAAIAELDSKGVGADLIKKIQQASSVEGVQFWKQEILAQLPA; Engineered C4 binding Y variant)”, the Estimated soluble fraction in data set [2] is on record as 100%. In data set [1] (setting [5]), the Tm stood at 58 °C. On C4, this substance showed a pKd of 7.21, a ka of 27000 M⁻¹ s⁻¹ and a kd of 0.0017 s⁻¹.
Consider “Y02303: C4 binding Y variant from Ylib002Naive.I, SEQ ID NO:34 (LAEAKEAAIAELDSKGVGAEEIKWIQNAWSVEGVQIMKQQILAELPA; Engineered C4 binding Y variant)”, for which the Estimated soluble fraction in data set [2] is given as 100%. In addition, the Tm in data set [1] (setting [5]) came to 43 °C. At C4, this substance showed a pKd of 5.66, a ka of 96000 M⁻¹ s⁻¹ and a kd of 0.21 s⁻¹.
For the substance “Y02374: IL-6 binding Y variant from Ylib002Naive.I, SEQ ID NO:72 (LAEAKEAAIAELDSKGVGAAEIKRIQAAELVEIVQLLKQAILAVLPA; Engineered IL-6 binding Y variant)”, in the data set with IL-6 (setting [5]), the pKd was 6.92, the ka worked out at 14000 M⁻¹ s⁻¹ and the kd was 0.0017 s⁻¹. Besides, the Estimated soluble fraction in data set [2] is listed as 100%.
As for “Y02415: IL-6 binding Y variant from Ylib002Naive.I, SEQ ID NO:74 (LAEAKEAAIAELDSKGVGAGDIKDIQDALLVEIVQLLKQAILAVLPA; Engineered IL-6 binding Y variant)”, in the data set with IL-6 (setting [5]), the pKd was 6.80, the ka was 9700 M⁻¹ s⁻¹ and the kd stood at 0.0015 s⁻¹. For the same substance, in data set [2], the Estimated soluble fraction is recorded as 100%.
In the data set with IL-6 (setting [5]), “Y02444: IL-6 binding Y variant from Ylib002Naive.I, SEQ ID NO:75 (LAEAKEAAIAELDSKGVGAVEIKQIQEALLVEIVQLLKQAILAVLPA; Engineered IL-6 binding Y variant)” had a pKd of 7.21, a ka of 90000 M⁻¹ s⁻¹ and a kd of 0.0055 s⁻¹. The Estimated soluble fraction in data set [2] is given as 100%. Besides, the “Structure at elevated temperature” value in data set [1] (CD spectra recorded at 60, 70, 80 and 90° C.) was “partial structure also at temperatures up to 90 °C”.
In the data set with IL-6 (setting [5]), “Y02447: IL-6 binding Y variant from Ylib002Naive.I, SEQ ID NO:76 (LAEAKEAAIAELDSKGVGAHGIKEIQDAILVEIVQLLKQAILAALPA; Engineered IL-6 binding Y variant)” had a negative-log Kd (pKd) of 6.80, a ka of 11000 M⁻¹ s⁻¹ and a kd of 0.0017 s⁻¹. The Estimated soluble fraction in data set [2] is 100%.
As for “Y02465: IL-6 binding Y variant from Ylib002Naive.I, SEQ ID NO:78 (LAEAKEAAIAELDSKGVGANHIKAIQHAQFVEIVQLLKQAILAVLPA; Engineered IL-6 binding Y variant)”, in the data set with IL-6 (setting [5]), the pKd is 6.57, the ka was determined as 7500 M⁻¹ s⁻¹ and the kd was 0.0021 s⁻¹. Also, the Estimated soluble fraction in data set [2] is given as 100%.
Turning to “Y02495: IL-6 binding Y variant from Ylib002Naive.I, SEQ ID NO:79 (LAEAKEAAIAELDSKGVGAEEIKEIQGAMLVEIVQLLKQAILAVLPA; Engineered IL-6 binding Y variant)”, in the data set with IL-6 (setting [5]), the pKd was 6.62, the ka amounted to 7100 M⁻¹ s⁻¹ and the kd is 0.0017 s⁻¹. In addition, the Estimated soluble fraction in data set [2] is 100%.
In the data set with IL-6 (setting [6]), “Y02697: IL-6 binding Y variant, Y02444 with I9L, SEQ ID NO:81 (LAEAKEAALAELDSKGVGAVEIKQIQEALLVEIVQLLKQAILAVLPA; Engineered IL-6 binding Y variant)” had a pKd of 6.82, a ka of 50000 M⁻¹ s⁻¹ and a kd of 0.009 s⁻¹. For the same substance, the Est soluble fraction in data set [2] was 100%.
In the same order, the values of “Y02698: IL-6 binding Y variant, Y02444 with K15Y, SEQ ID NO:82 (LAEAKEAAIAELDSYGVGAVEIKQIQEALLVEIVQLLKQAILAVLPA; Engineered IL-6 binding Y variant)” are 6.92, 28000 M⁻¹ s⁻¹, 0.0033 s⁻¹ and 100%.
For “Y02699: IL-6 binding Y variant, Y02444 with Q26E, SEQ ID NO:83 (LAEAKEAAIAELDSKGVGAVEIKQIEEALLVEIVQLLKQAILAVLPA; Engineered IL-6 binding Y variant)”, in that order: 6.70, 19000 M⁻¹ s⁻¹, 0.0029 s⁻¹ and 100%.
Take “Y02700: IL-6 binding Y variant, Y02415 with I9L, SEQ ID NO:84 (LAEAKEAALAELDSKGVGAGDIKDIQDALLVEIVQLLKQAILAVLPA; Engineered IL-6 binding Y variant)”: in the data set with IL-6 (setting [6]), the negative logarithm of the Kd (pKd) was 7.21, the ka was 46000 M⁻¹ s⁻¹ and the kd was determined as 0.0025 s⁻¹. The Est soluble fraction in data set [2] is 100%.
In the data set with IL-6 (setting [6]), “Y02701: IL-6 binding Y variant, Y02415 with K15Y, SEQ ID NO:85 (LAEAKEAAIAELDSYGVGAGDIKDIQDALLVEIVQLLKQAILAVLPA; Engineered IL-6 binding Y variant)” had a pKd of 6.68, a ka of 21000 M⁻¹ s⁻¹ and a kd of 0.0036 s⁻¹. In data set [2], the Est soluble fraction is reported as 100%.
Take “Y02702: IL-6 binding Y variant, Y02415 with Q26E, SEQ ID NO:86 (LAEAKEAAIAELDSKGVGAGDIKDIEDALLVEIVQLLKQAILAVLPA; Engineered IL-6 binding Y variant)”: in the data set with IL-6 (setting [6]), the pKd is 6.36, the ka is 16000 M⁻¹ s⁻¹ and the kd amounted to 0.007 s⁻¹. The Est soluble fraction in data set [2] is 100%.
On to “Y02703: IL-6 binding Y variant, Y02444 with K15Y Q26E, SEQ ID NO:87 (LAEAKEAAIAELDSYGVGAVEIKQIEEALLVEIVQLLKQAILAVLPA; Engineered IL-6 binding Y variant)”, for which, in the data set with IL-6 (setting [6]), the pKd is 6.92, the ka was 21000 M⁻¹ s⁻¹ and the kd turned out to be 0.0025 s⁻¹. Also, the Est soluble fraction in data set [2] is 100%.
